This passage reports Cell fusion (IC90) and HIV infectivity (IC90) results from US6824783.

A value given as a limit tells only on which side of the number the result lay.

This experiment addresses viral gp41 (HIV-1 transmembrane protein) of HIV-1IIIB (HIV-1 IIIB). The experiment in a line: cell-based or functional assay.

Turning to “M41-P (M41 with an Ile to Pro mutation at position 578) (from UniProt P03377 540-686)”, the Cell fusion (IC90) worked out at 0.083 µM and the HIV infectivity (IC90) turned out to be 0.066 µM.
Taken in the same sequence, the figures for “M41-PΔ178 (M41-P from which the DP-178 region has been deleted; gp41 residues 540-642 with Ile578Pro) (from UniProt P03377 540-642)” were above 50 µM and above 8 µM.
Taken in the same sequence, the figures for “M41 (maltose binding protein fused to the extracellular domain of HIV-1 gp41, residues 540-686) (from UniProt P03377 540-686)” were above 50 µM and above 16 µM.
